Measurements taken from the supplement of paper PMC11865577.

Experiments:
Assay in all cases: pull-down binding Z-score (relative to library population); higher = stronger binding
TO-N3 (biotin conjugate) = conditions: RNA library: Library-2
Summary of the method: (§1)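 Biotin-conjugated small molecule (100 pmol) on streptavidin beads was incubated with 1 μg of heat-folded Cy5- or Cy3-end-labelled RNA library in phosphate/NaCl/KCl buffer at 25 °C for 60 min. Following three washes, RNA was eluted with hot SDS and hybridised at 55.5 °C for 20 h to a DNA barcode microarray. The binding value is a Z-score computed from the library mean and standard deviation, after subtraction of beads without compound and averaging of barcoded replicate probes with the highest and lowest excluded.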

[1] = tested on: TO-3-N3 (biotin conjugate); conditions: RNA library: Library-2
Summary of the method: as §1

[2] = tested on: G-clamp-N3 (biotin conjugate); conditions: RNA library: Library-1 (pre-miRNA loops + repeats)
Summary of the method: as §1

[3] = tested on: TO-3-N3-2 (biotin conjugate); conditions: RNA library: Library-2
Summary of the method: as §1

[4] = tested on: TO-N3-2 (biotin conjugate); conditions: RNA library: Library-2
Summary of the method: as §1

Sequence | pull-down binding Z-score (TO-N3 (biotin conjugate)) | pull-down binding Z-score [1] | pull-down binding Z-score [2] | pull-down binding Z-score [3] | pull-down binding Z-score [4]
GUCACCAGCCCUCAUGUACUUGUGAC [hsa-mir-6820] | 0.222 | 0.335 | -1.09 | -0.289 | -0.281
UUUUGCUUGUGUCUCUCCGCUCUGAGCAAUC [hsa-mir-96] | 0.528 | 0.441 | -0.253 | -0.0864 | 0.411
CUGUGCUGUCUCUGAGCACCG [hsa-mir-6827] | 0.322 | 0.0475 | 0.0113 | -0.348 | 0.586
AGGAGUUCACU [hsa-mir-1183] | -0.253 | -0.276 | -0.952 | -0.383 | 0.0749
CCUUAGCACUAGCAGGAGG [hsa-mir-612] | -0.556 | -0.588 | 0.101 | -0.482 | 0.00744
UGAUCAUUAUAUGUAUGAUGAGAUCAU [hsa-mir-4528] | -0.54 | -0.532 | 1.33 | -0.131 | -0.0235
UGAGUGCUAUUUCAGUGCAACA [hsa-mir-362] | 0.821 | 0.967 | -0.0128 | 0.108 | 0.0784
UUCUUUUUUCUGAAAUUCUUCAGGAAGGA [hsa-mir-3167] | 0.0883 | 0.368 | -0.0544 | 0.823 | -0.017
UCCUCCAUGCUUGGAAAAUGCAGGGAGGA [hsa-mir-764] | -0.987 | -0.857 | 0.669 | -0.61 | -1.01
GUCAGUCCCAAUCUGAAUCCCACCAAAAUAGGUGGUAGAGGGUUGC [hsa-mir-4290] | 0.0867 | -0.204 | -1.14 | 0.249 | 0.752
UGCUGAUGUCAUCAGUCAUAACUUCUGCG [hsa-mir-6854] | -0.0155 | -0.119 | -0.983 | 0.131 | 0.366
UUUGCCAUUAUAAUGGCAAA [hsa-mir-548ae-1] | -1.37 | -0.806 | -0.11 | -0.855 | -1.71
GCGGUUUUUGCUAUUGGUUUUAAUGGC [hsa-mir-548au] | -0.205 | -0.185 | -0.139 | -0.189 | -0.183
GAAGCUGUAAGACACAGCUAAGCUUU [hsa-mir-30d] | -0.169 | -0.376 | -0.32 | -0.00751 | 0.0477
GUGUUUAUUUUUUACUAAAUAG [hsa-mir-4766] | -0.451 | -0.515 | -0.918 | 0.102 | -0.723
CUGCUGAAUCUUCAGAAAGG [hsa-mir-3142] | -0.164 | -0.432 | -0.0627 | -0.178 | 0.135
GUGGAGUCGGGUCAGACUUCAA [hsa-mir-378c] | -0.0868 | -0.461 | -1.13 | -0.477 | 0.384
UAUAUUCGGUUUAUUGACAUGGAAUAUA [hsa-mir-381] | 0.706 | 0.718 | 2.02 | 0.106 | -0.284
CAGGAGUGGACACCUG [hsa-mir-1246] | -0.198 | -0.0928 | -0.505 | -0.238 | -0.454
UUUGCCAUUACUUUCAGUAGCAAA [hsa-mir-548c] | -0.379 | -0.131 | -0.417 | -0.441 | -0.814
UAAAGAGUAUUCAACAUC [hsa-mir-1245b] | -0.49 | -0.609 | -0.935 | 0.0553 | -0.373
CUGUGACGUGCUCCAUCACCGGGCAG [hsa-mir-3714] | -0.0254 | -0.37 | 0.138 | -0.391 | 0.847
CAGCUACACAAGCUG [hsa-mir-631] | -0.53 | -0.0598 | 1.64 | -0.33 | -0.859
UGAGCAUUUUUACUGAAUUGCCA [hsa-mir-6715a] | -0.738 | -0.582 | 0.49 | -0.268 | -0.686
CCAAGGUUGUGCUUUUAGGAAAUGUUGGCUGUCCUGCGG [hsa-mir-5739] | -0.157 | -0.448 | 0.485 | 0.205 | 0.49

Sequence | pull-down binding Z-score (TO-N3 (biotin conjugate)) | pull-down binding Z-score [1] | pull-down binding Z-score [2] | pull-down binding Z-score [3] | pull-down binding Z-score [4]
UUCUCGAGUCUAUGGCUCCGGCCGAGAG [hsa-mir-219a-1] | 0.342 | 0.197 | -0.199 | 0.358 | 1.1
AUUGUUGUGGGGUAGGGAUAUUAGGCCCCAAUUAGAAGAUAACUAU [hsa-mir-98] | 1.07 | 1.03 | 1.37 | 1.1 | 0.971
GUUUCUGUUGUCUGAAAGGAAAGAAAG [hsa-mir-520e] | -0.486 | -0.489 | -1.01 | -0.346 | 0.25
UGGCCAUUUCCUACCA [hsa-mir-617] | -0.908 | -0.72 | -1.33 | -0.393 | -0.383
CAAGUAAAAGGAAUUUUCAUUUUCCAGCCCCUAAUUG [hsa-mir-6739] | -0.811 | -0.655 | -1.23 | -0.399 | -0.628
CAGCCCGUGGUGGGG [hsa-mir-3619] | 0.752 | 0.721 | 0.788 | 0.115 | 0.751
CUGUUCAGGAGGCUCUCAAUGUGUACA [hsa-mir-199a-1] | 0.947 | 0.518 | -0.113 | 0.404 | 0.656
UCAGCACCUGAACGCCAAGGCUGG [hsa-mir-3150a] | -0.348 | -0.481 | 0.168 | -0.591 | 0.123
CUUGCUGUGACAUGACAAAAAUAAG [hsa-mir-302d] | 0.357 | 0.449 | -0.853 | 0.294 | -0.107
AGGCUUGGCACUUGAGGGAAAGCCU [hsa-mir-8059] | 0.646 | 0.451 | 2.67 | 0.0114 | 0.469
UGGUGCAAUAAUUGG [hsa-mir-1302-7] | 0.4 | 0.418 | 1.95 | 0.492 | 0.245
GAGUUUGGAAUUAAAAUCAAAACC [hsa-mir-181a-1] | -0.398 | -0.619 | -0.118 | -0.129 | 0.419
UGAGGAGUAGAACACUCCUUA [hsa-mir-491] | -0.649 | -0.282 | 0.0146 | -0.448 | -0.939
CUCAGGAAUUGGAUAAGCUUUUCUGAG [hsa-mir-5194] | -0.399 | -0.212 | 0.541 | -0.272 | -0.323
UUCUGUUGUCUGAAAGAAACCAA [hsa-mir-518d] | -0.0135 | -0.253 | -1.34 | -0.0975 | 0.126
UUCUGUUGUCUGAAAGAAAAGAA [hsa-mir-1283-2] | -0.429 | -0.517 | 0.164 | -0.145 | -0.382
GGAAGAAGGCUGAGGGAGAUGCCUUCUUCC [hsa-mir-6512] | -0.155 | -0.455 | 0.436 | -0.106 | 1.02
GUGAGCUCAGCUCCCUGCCUCAC [hsa-mir-3622b] | 0.138 | -0.00258 | -1.4 | -0.173 | 0.811
GGCGUGGACAACUUGCU [hsa-mir-3943] | 0.131 | -0.271 | 0.951 | -0.0337 | 0.912
GAGUGUAAUUACGUACAUGCAGUAGCUC [hsa-mir-618] | 0.341 | 0.405 | 0.413 | 0.182 | 0.152
CUUCGCGCUAGUUUGUUUGUGUUAAG [hsa-mir-6077] | -0.0943 | -0.0696 | -0.639 | 0.0164 | -0.426
AUAGUUUUAGGGUCACACCCACCACUGGGAGAUAACUAU [hsa-let-7a-1] | 0.607 | 0.853 | 0.294 | 0.205 | -0.0919
GUCCUGACUGCGUGCCAGGGGC [hsa-mir-3650] | -0.175 | -0.235 | 0.903 | -0.518 | 0.488
UUUUUGUUUUUGAGACAGAGU [hsa-mir-4472-2] | 0.274 | 0.455 | -0.943 | 0.0401 | -0.803
AUGUCUCAGGUCCCCAGCUGAGUCAA [hsa-mir-6513] | 0.609 | 0.633 | -1.3 | 0.129 | 0.47

Sequence | pull-down binding Z-score (TO-N3 (biotin conjugate)) | pull-down binding Z-score [1] | pull-down binding Z-score [2] | pull-down binding Z-score [3] | pull-down binding Z-score [4]
UGAGUGGCAUAAUCAGAGUACAAUUUGAGUCAUGCCCAUACAUCA [hsa-mir-23c] | -0.271 | -0.338 | -1.1 | 0.0374 | 0.0219
GCUGAACCCCUGCCCCUGGAGCCCCCAGCAGGGCCCUC [hsa-mir-7162] | 1.34 | 0.665 | -1.32 | 0.612 | 1.85
GGAUGUGUUGACCCCUGAAGUGGUUCUGAUGACCUUUCC [hsa-mir-6883] | 0.387 | 0.00863 | -1.11 | -0.03 | 0.938
GGGUGUAUGGUAUAGGGGUAGCCU [hsa-mir-3137] | 2.5 | 2.13 | 3.31 | 1.54 | 2.42
GAUUGGUCUGUGGUCCUCUC [hsa-mir-3615] | -0.565 | -0.569 | 0.109 | -0.217 | 0.498
GCUCUGGGGAUUUGGUCUCACAGC [hsa-mir-3940] | -0.497 | -0.54 | 0.507 | -0.38 | -0.339
AGCUGGCUGAAGGGCAGAAGGGAACUGUCCUUCAGCCAGAG [hsa-mir-4487] | -0.243 | -0.276 | -0.139 | -0.156 | -0.122
UUCGCGGUUGGGCU [hsa-mir-3143] | 1.33 | 1.21 | 0.897 | 0.258 | 0.693
GAGACAACUUCCCAGUCUC [hsa-mir-6717] | -1.17 | -0.96 | -0.0467 | -0.519 | -0.848
AGAUCUAUGUCAUAUAUACAGAUAU [hsa-mir-3924] | 0.742 | 0.902 | -0.51 | 0.268 | -0.356
CCGCUAGUGGAAGAAGAUGGCGG [hsa-mir-6125] | 0.547 | 0.322 | 1.5 | 0.669 | 1.59
GCCACAUGAGCUGGGCCUCGUGGGC [hsa-mir-770] | 0.189 | 0.237 | -0.657 | -0.342 | 0.565
GGCGCGCGAGGCUCCAGGCUCC [hsa-mir-3197] | 0.81 | 0.322 | 2.56 | 0.248 | 1.92
GAGAUGUGAUCCUGCCACAUCUC [hsa-mir-1304] | -0.261 | -0.09 | 0.421 | -0.00394 | -0.363
UGAAAGGUUUUUUCUCUCA [hsa-mir-4797] | -0.402 | -0.332 | 0.0116 | -0.248 | -0.918
CUUUCCUCAGCUGAUUUCUUUCUGGGGAGAG [hsa-mir-5186] | -0.52 | -0.144 | -0.72 | -0.279 | -1.08
CCAUGUAAUCUUUGG [hsa-mir-1302-5] | 0.454 | 0.507 | -0.454 | 0.112 | -0.0743
CAGAGGUCCCACAGCAGGGCUGGAAAGCACACCUGUGGGACUUCUG [hsa-mir-3922] | 0.231 | 0.224 | 0.395 | 0.0101 | -0.164
GCUGGAGUAAGGGCACGCCCGGGGCUGC [hsa-mir-4758] | 1.51 | 0.802 | 1.11 | 0.383 | 1.79
GUGGCUUCAACCAAGUUCAAAGUCAC [hsa-mir-3186] | -0.441 | -0.304 | -1.08 | -0.378 | -0.383
AAUAAAGUAUGUCCACAGCUGAAAGGACAUACUUUAUU [hsa-mir-4464] | -1.18 | -0.7 | -0.77 | -0.236 | -1.28
AGGGACCCCCGGAGUCUGUCACGGUCUCA [hsa-mir-6784] | 0.353 | -0.0169 | -0.402 | 0.215 | 0.955
GGGCUGCCCGGGCCGGUCGACCAGCGCGCCGUAGCUCC [hsa-mir-6724-2_6724-3_6724-1_6724-4] | 1.03 | 0.0652 | 0.0384 | -0.0157 | 2.24
GGCAGGUGCCUCCGUGUUGCCGAACCCUCCU [hsa-mir-6761] | 0.998 | 0.358 | -0.447 | 0.116 | 1.74
